Test results taken from PMC7156267, “Cryo-EM structures of S-OPA1 reveal its interactions with membrane and changes upon nucleotide binding” (eLife, 2020).

Molecular target: the molecule itself
Experiment: SEC; Superdex 200 10/300 GL, column pre-calibrated with molecular weight markers; 20 mM Tris-HCl pH 8.0, 150 mM NaCl, 1 mM DTT; self-association in solution

B1: S-OPA1 (short S1 isoform of human OPA1, splice form 1), wild type (natural protein, UniProt O60313 196-960, looked up)
chain: TDRGSESDKHFRKVSDKEKIDQLQEELLHTQLKYQRILERLEKENKELRKLVLQKDDKGIHHRKLKKSLIDMYSEVLDVLSDYDASYNTQDHLPRVVVVGDQSAGKTSVLEMIAQARIFPRGSGEMMTRSPVKVTLSEGPHHVALFKDSSREFDLTKEEDLAALRHEIELRMRKNVKEGCTVSPETISLNVKGPGLQRMVLVDLPGVINTVTSGMAPDTKETIFSISKAYMQNPNAIILCIQDGSVDAERSIVTDLVSQMDPHGRRTIFVLTKVDLAEKNVASPSRIQQIIEGKLFPMKALGYFAVVTGKGNSSESIEAIREYEEEFFQNSKLLKTSMLKAHQVTTRNLSLAVSDCFWKMVRESVEQQADSFKATRFNLETEWKNNYPRLRELDRNELFEKAKNEILDEVISLSQVTPKHWEEILQQSLWERVSTHVIENIYLPAAQTMNSGTFNTTVDIKLKQWTDKQLPNKAVEVAWETLQEEFSRFMTEPKGKEHDDIFDKLKEAVKEESIKRHKWNDFAEDSLRVIQHNALEDRSISDKQQWDAAIYFMEEALQARLKDTENAIENMVGPDWKKRWLYWKNRTQEQCVHNETKNELEKMLKCNEEHPAYLASDEITTVRKNLESRGVEVDPSLIKDTWHQVYRRHFLKTALNHCNLCRRGFYYYQRHFVDSELECNDVVLFWRIQRMLAITANTLRQQLTNTEVRRLEKNVKEVLEDFAEDGEKKIKLLTGKRVQLAEDLKKVREIQEKLDAFIEALHQEK
notes: Optic atrophy 1 (OPA1), human, splice form 1 (isoform 1); Dimer in solution by gel filtration, BS3 cross-linking and SEC-MALS; The first residue is worked out from the S1 site (195th residue) and the name of the deletion Δ196-252; also called WT; full-length S-OPA1; source: E. coli Transetta (DE3), purified (Ni-NTA, PreScission cleavage, Superdex 200 gel filtration); not shown: Trx, N-terminal, …
stoichiometry N: 2
